Source: patent publication US20250340637A1 (ABPRO, published 2025)

T1: CynoCD3E (cyno, UniProt Q95LI5 22-117, limits assumed)
T1 construct: Recombinant analyte in SPR and antigen in ELISA; The construct is not described; also called cynomolgus CD3 epsilon
T1 sequence (looked up): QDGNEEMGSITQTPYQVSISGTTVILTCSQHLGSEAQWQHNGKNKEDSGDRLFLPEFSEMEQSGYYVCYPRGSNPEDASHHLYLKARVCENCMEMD


Assays:
HuCD3E [1] = molecular target: T2, HuCD3E (Homo sapiens, UniProt P07766 23-126, limits assumed); test: SPR, Biacore 8K; CD3 Affinity column: Med; lower end of the range
T2 construct: Recombinant analyte in SPR and antigen in ELISA; also called human CD3; human CD3 epsilon
T2 sequence (P07766 23-126 limits assumed): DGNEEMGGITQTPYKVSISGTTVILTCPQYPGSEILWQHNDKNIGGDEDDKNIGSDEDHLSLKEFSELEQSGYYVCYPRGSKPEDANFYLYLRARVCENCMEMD

HuCD3E [2] = molecular target: T2, HuCD3E; test: SPR, Biacore 8K; CD3 Affinity column: Med; upper end of the range
HuCD3E [3] = molecular target: T2, HuCD3E; test: as above; remark: listed apart in the source
Method: (§1) Initially, the affinity measurement of the anti-CD3 clones were determined using a Surface Plasmon Resonance (SPR) biosensor, Biacore 8K (GE Healthcare). The equilibrium dissociation constant (KD) was calculated from the ratio of kd over ka. To determine the contribution of a specific residue to antibody affinity and expression, paratope mapping was performed by screening of NNK libraries. In brief, the VH and VL of the parental antibody were searched by using NCBI Ig-Blast (www.ncbi.nlm.nih.gov/projects/igblast/) and CDRs were defined by the KABAT delineation system. All residues within CDRs were defined and mutated by NNK method. Each individual NNK library was generated per residue based on the FASEBA platform with a theoretical diversity at 20. The DNA encoding both heavy chain and light chain were inserted into a mammalian expression vector, transfected into CHO-S cells, and stable clones of highest expression were selected. Supernatants were collected from shaker flasks and purified on protein A affinity chromatography.
(§2) Affinity ranking. Binding between the parental and affinity-tuned bispecific antibodies and human and cyno target proteins (HER2 and CD3) was validated by ELISA, and a Biacore 8K was used to study the kinetics of the interaction between the antigen and the bispecific antibodies.

HuCD3E [4] = molecular target: T2, HuCD3E; test: SPR, Biacore 8K; CD3 Affinity column: Med; lower end of the range; remark: listed apart in the source
CynoCD3E = molecular target: T1, CynoCD3E; test: SPR, Biacore 8K; antibody captured, CD3E as analyte
Method: as §1, §2

HuCD3E [5] = molecular target: T2, HuCD3E; test: as above
Method: as §1, §2

Binder	Kd (HuCD3E [1])	Kd (HuCD3E [2])	Kd (HuCD3E [3])	Kd (HuCD3E [4])	also measured
32G4-V8-v5.2 (antibody, V domains shown) VH: EVQLVESGGGLVQPGGSLKLSCAASGFTFNTYAMNWVRQAPGKGLEWVARIRSKYNNYATYKADSVKDRFTISRDDSKNTAYLQMNSLKTEDTAVYYCVRHGNFGNSYVSWFAYWGQGTLVTVSS VL: QTVVTQEPSLTVSPGGTVTLTCRSSTGAVTTSNYANWVQQKPGQAFRGLIGGTNKRAPGVPARFSGSLLGGKAALTLSGVQPEDEAIYFCALWYSNLWVFGGGTKLTVL	≥ 10 nM	≤ 100 nM	–	–	–
32G4-V8-v5.3 (antibody, V domains shown) VH: EVQLVESGGGLVQPGGSLKLSCAASGFTFNTYAMNWVRQAPGKGLEWVARIRSKYNNYATYYADKVKDRFTISRDDSKNTAYLQMNSLKTEDTAVYYCVRHGNFGNSYVSWFAYWGQGTLVTVSS VL: QTVVTQEPSLTVSPGGTVTLTCRSSTGAVTTSNYANWVQQKPGQAFRGLIGGTNKRAPGVPARFSGSLLGGKAALTLSGVQPEDEAIYFCALWYSNLWVFGGGTKLTVL	≥ 10 nM	≤ 100 nM	–	–	–
32G4-V8-v5.4 (antibody, V domains shown) VH: EVQLVESGGGLVQPGGSLKLSCAASGFTFNTYAMNWVRQAPGKGLEWVARIRSKYNNYATYYWDSVKDRFTISRDDSKNTAYLQMNSLKTEDTAVYYCVRHGNFGNSYVSWFAYWGQGTLVTVSS VL: QTVVTQEPSLTVSPGGTVTLTCRSSTGAVTTSNYANWVQQKPGQAFRGLIGGTNKRAPGVPARFSGSLLGGKAALTLSGVQPEDEAIYFCALWYSNLWVFGGGTKLTVL	≥ 10 nM	≤ 100 nM	–	–	–
47D10-V7-v5.2 (antibody, V domains shown) VH: EVQLVESGGGLVQPGGSLKLSCAASGFTFNTYAMNWVRQAPGKGLEWVARIRSKYNNYATYKADSVKDRFTISRDDSKNTAYLQMNSLKTEDTAVYYCVRHGNFGNSYVSWFAYWGQGTLVTVSS VL: QTVVTQEPSLTVSPGGTVTLTCRSSTGAVTTSNYANWVQQKPGQAFRGLIGGTNKRAPGVPARFSGSLLGGKAALTLSGVQPEDEAIYFCALWYSNLWVFGGGTKLTVL	≥ 10 nM	≤ 100 nM	–	–	–
47D10-V7-v5.3 (antibody, V domains shown) VH: EVQLVESGGGLVQPGGSLKLSCAASGFTFNTYAMNWVRQAPGKGLEWVARIRSKYNNYATYYADKVKDRFTISRDDSKNTAYLQMNSLKTEDTAVYYCVRHGNFGNSYVSWFAYWGQGTLVTVSS VL: QTVVTQEPSLTVSPGGTVTLTCRSSTGAVTTSNYANWVQQKPGQAFRGLIGGTNKRAPGVPARFSGSLLGGKAALTLSGVQPEDEAIYFCALWYSNLWVFGGGTKLTVL	≥ 10 nM	≤ 100 nM	–	–	–
47D10-V7-v5.4 (antibody, V domains shown) VH: EVQLVESGGGLVQPGGSLKLSCAASGFTFNTYAMNWVRQAPGKGLEWVARIRSKYNNYATYYWDSVKDRFTISRDDSKNTAYLQMNSLKTEDTAVYYCVRHGNFGNSYVSWFAYWGQGTLVTVSS VL: QTVVTQEPSLTVSPGGTVTLTCRSSTGAVTTSNYANWVQQKPGQAFRGLIGGTNKRAPGVPARFSGSLLGGKAALTLSGVQPEDEAIYFCALWYSNLWVFGGGTKLTVL	≥ 10 nM	≤ 100 nM	–	–	–
ABP100s.10.5.2 (antibody, V domains shown) VH: EVQLVESGGGLVQPGGSLKLSCAASGFTFNTYAMNWVRQAPGKCLEWVARIRSKYNNYATYKADSVKDRFTISRDDSKNTAYLQMNSLKTEDTAVYYCVRHGNFGNSYVSWFAYWGQGTLVTVSS VL: QTVVTQEPSLTVSPGGTVTLTCRSSTGAVTTSNYANWVQQKPGQAFRGLIGGTNKRAPGVPARFSGSLLGGKAALTLSGVQPEDEAIYFCALWYSNLWVFGCGTKLTVL	–	–	≤ 100 nM	≥ 10 nM	–
ABP100s.10.5.3 (antibody, V domains shown) VH: EVQLVESGGGLVQPGGSLKLSCAASGFTFNTYAMNWVRQAPGKCLEWVARIRSKYNNYATYYADKVKDRFTISRDDSKNTAYLQMNSLKTEDTAVYYCVRHGNFGNSYVSWFAYWGQGTLVTVSS VL: QTVVTQEPSLTVSPGGTVTLTCRSSTGAVTTSNYANWVQQKPGQAFRGLIGGTNKRAPGVPARFSGSLLGGKAALTLSGVQPEDEAIYFCALWYSNLWVFGCGTKLTVL	–	–	≤ 100 nM	≥ 10 nM	–
ABP100s.10.5.4 (antibody, V domains shown) VH: EVQLVESGGGLVQPGGSLKLSCAASGFTFNTYAMNWVRQAPGKCLEWVARIRSKYNNYATYYWDSVKDRFTISRDDSKNTAYLQMNSLKTEDTAVYYCVRHGNFGNSYVSWFAYWGQGTLVTVSS VL: QTVVTQEPSLTVSPGGTVTLTCRSSTGAVTTSNYANWVQQKPGQAFRGLIGGTNKRAPGVPARFSGSLLGGKAALTLSGVQPEDEAIYFCALWYSNLWVFGCGTKLTVL	–	–	≤ 100 nM	≥ 10 nM	–
ABP100s.10.6.2 (antibody, V domains shown) VH: EVQLVESGGGLVQPGGSLKLSCAASGFTFNTYAMNWVRQAPGKCLEWVARIRSKYNNYATYKADSVKDRFTISRDDSKNTAYLQMNSLKTEDTAVYYCVRHGNFGNSYVSWFAYWGQGTLVTVSS VL: QTVVTQEPSLTVSPGGTVTLTCRSSTGAVTTSNYANWVQQKPGQAFRGLIGGTNKRAPGVPARFSGSLLGGKAALTLSGVQPEDEAIYFCALWYSNLWVFGCGTKLTVL	–	–	≤ 100 nM	≥ 10 nM	–
ABP100s.10.6.3 (antibody, V domains shown) VH: EVQLVESGGGLVQPGGSLKLSCAASGFTFNTYAMNWVRQAPGKCLEWVARIRSKYNNYATYYADKVKDRFTISRDDSKNTAYLQMNSLKTEDTAVYYCVRHGNFGNSYVSWFAYWGQGTLVTVSS VL: QTVVTQEPSLTVSPGGTVTLTCRSSTGAVTTSNYANWVQQKPGQAFRGLIGGTNKRAPGVPARFSGSLLGGKAALTLSGVQPEDEAIYFCALWYSNLWVFGCGTKLTVL	–	–	≤ 100 nM	≥ 10 nM	–
ABP100s.10.6.4 (antibody, V domains shown) VH: EVQLVESGGGLVQPGGSLKLSCAASGFTFNTYAMNWVRQAPGKCLEWVARIRSKYNNYATYYWDSVKDRFTISRDDSKNTAYLQMNSLKTEDTAVYYCVRHGNFGNSYVSWFAYWGQGTLVTVSS VL: QTVVTQEPSLTVSPGGTVTLTCRSSTGAVTTSNYANWVQQKPGQAFRGLIGGTNKRAPGVPARFSGSLLGGKAALTLSGVQPEDEAIYFCALWYSNLWVFGCGTKLTVL	–	–	≤ 100 nM	≥ 10 nM	–
VH2 (SEQ ID NO: 21) + VL6 (SEQ ID NO: 19) (antibody, V domains shown, Humanized SP34 anti-CD3 variant; the text around it speaks of full-length bispecific antibodies; The sample heated at 42° C. is the same molecule and is marked under assay; also called VH2 + VL6) VH: EVQLVESGGGLVQPGGSLKLSCAASGFTFNTYAMNWVRQASGKGLEWVARIRSKYNNYATYYADSVKDRFTISRDDSKNTAYLQMNSLKTEDTAVYYCVRHGNFGNSYVSWFAYWGQGTLVTVSS VL: QTVVTQEPSLTVSPGGTVTLTCRSSTGAVTTSNYANWVQQKPGQAFRGLIGGTNKRAPGVPARFSGSLLGGKAALTLSGVQPEDEAIYFCALWYSNLWVFGGGTKLEIK	–	–	–	–	Kd (CynoCD3E): 1.7 nM; koff (CynoCD3E): 0.000821 s⁻¹; kon (CynoCD3E): 483000 M⁻¹ s⁻¹; Kd (HuCD3E [5]): 1.01 nM; koff (HuCD3E [5]): 0.000357 s⁻¹; kon (HuCD3E [5]): 352000 M⁻¹ s⁻¹
